Measured values from US20150023958A1 (SAMSUNG ELECTRONICS, published 2015).

T1: human Ang2 (human, UniProt O15123 19-496)
T1 construct: Bought protein (R&D Systems); also called A2; angiopoietin 2
T1 sequence (looked up): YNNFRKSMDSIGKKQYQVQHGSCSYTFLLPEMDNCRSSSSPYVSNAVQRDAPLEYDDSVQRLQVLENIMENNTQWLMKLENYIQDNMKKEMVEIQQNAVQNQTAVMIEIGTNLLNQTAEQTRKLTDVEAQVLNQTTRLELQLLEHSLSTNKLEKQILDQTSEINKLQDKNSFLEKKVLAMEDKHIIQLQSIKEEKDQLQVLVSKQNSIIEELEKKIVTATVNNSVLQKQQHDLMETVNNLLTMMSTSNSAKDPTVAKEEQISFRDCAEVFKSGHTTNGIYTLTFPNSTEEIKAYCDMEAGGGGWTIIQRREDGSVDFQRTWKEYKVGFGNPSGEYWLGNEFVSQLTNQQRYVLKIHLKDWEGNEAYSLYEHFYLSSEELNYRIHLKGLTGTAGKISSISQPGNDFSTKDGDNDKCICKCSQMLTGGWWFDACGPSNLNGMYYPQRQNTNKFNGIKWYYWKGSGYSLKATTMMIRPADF

T2: human VEGF-C (human, UniProt P49767 103-227)
T2 construct: Bought protein (R&D Systems); also called VC; Vascular endothelial growth factor C
T2 sequence (looked up): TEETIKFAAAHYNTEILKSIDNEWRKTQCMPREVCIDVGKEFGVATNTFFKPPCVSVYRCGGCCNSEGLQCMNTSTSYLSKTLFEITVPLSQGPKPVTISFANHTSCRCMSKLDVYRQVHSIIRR

T3: human VEGF-D (human, UniProt O43915 93-201, limits assumed)
T3 construct: Bought protein (R&D Systems); also called Vascular endothelial growth factor D
T3 sequence (looked up): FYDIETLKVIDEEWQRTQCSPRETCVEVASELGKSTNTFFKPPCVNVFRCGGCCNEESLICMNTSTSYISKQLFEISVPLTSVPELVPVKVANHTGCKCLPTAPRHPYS


Tests used:
human Ang2 = molecular target: T1, human Ang2; test: ELISA, Ang2 coated on plate, anti-human Fc-HRP detection
Description: (§1) To measure binding capacities of fusion polypeptides to each target, ELISA (Enzyme-linked immunosorbent assay) was conducted. On a 96-well MaxiSorp™ flat-bottom plate (Nunc), 50 ul of human VEGF-C, VEGF-D, or Ang2 (R&D Systems) were coated in the concentration of […]. And then, the plate was washed 5 times with PBS containing 0.05% Tween-20, and then, blocked with PBS containing 1% BSA at room temperature for 2 hours. 50 ul of each fusion polypeptide was put in each well according to concentration, and then, the plate was incubated at room temperature for 2 hours. And then, it was washed 5 times with PBS containing 0.05% Tween-20, and then, HRP-conjugated anti-human Fc antibody (Sigma) was diluted to 1:5,000 with PBS containing 1% BSA and reacted at room temperature for 1 hour, and washed 5 times with PBS containing 0.1% Tween-20. Finally, to each well of the plate, 50 μl of TMB substrate (SIGMA) was added to cause color reaction, and then, the reaction was stopped with 50 μl of a 5N H₂SO₄ solution, and OD450 value was measured on a plate reader (Molecular Devices). Thereby, binding capacities (KD) of the manufactured fusion polypeptides to human VEGF-C, VEGF-D or Ang2 protein were measured.

human VEGF-C = molecular target: T2, human VEGF-C; test: ELISA, VEGF-C coated on plate, anti-human Fc-HRP detection
Description: as §1

human VEGF-D = molecular target: T3, human VEGF-D; test: ELISA, VEGF-D coated on plate, anti-human Fc-HRP detection
Description: as §1

Row | Kd (human Ang2) | Kd (human VEGF-C) | Kd (human VEGF-D) | binding result (human Ang2) | Binder
1 | 45 nM | 130 nM | 170 nM | – | AV-body 1 (Fc fusion, also called fusion polypeptide AV-body 1; Tie2-ECD/R2-2/R2-3-Fc; not shown: Fc fragment of human IgG1, fused to the C-terminus through the pFUSE-hIgG1-Fc1 vector (InvivoGen)) AMDLILINSLPLVSDAETSLTCIASGWRPHEPITIGRDFEALMNQHQDPLEVTQDVTREWAKKVVWKREKASKINGAYFCEGRVRGEAIRIRTMKMRQQASFLPATLTMTVDKGDNVNISFKKVLIKEEDAVIYKNGSFIHSVPRHEVPDILEVHLPHAQPQDAGVYSARYIGGNLFTSAFTRLIVRRCEAQKWGPECNHLCTACMNNGVCHEDTGECICPPGFMGRTCEKACELHTFGRTCKERCSGQEGCKSYVFCLPDPYGCSCATGWKGLQCNEACHPGFYGPDCKLRCSCNNGEMCDRFQGCLCSPGWQGLQCEREGIEFSPFIASVSDQHGVVYITENKNKTVVIPCLGSISNLNVSLCARYPEKRFVPDGNRISWDSKKGFTIPSYMISYAGMVFCEAKINDESYQSIMYIVVVVGYRIYDVVLSPSHGIELSVGEKLVLNCTARTELNVGIDFNWEYPSSKHQHKKLVNRDLKTQSGSEMKKFLSTLTIDGVTRSDQGLYTCAASSGLMTKKNSTFVRVHE
2 | 20 nM | 34 nM | 42 nM | – | AV-body 2 (Fc fusion, also called fusion polypeptide AV-body 2; Tie2-ECD/R2-2/R3-2-Fc; not shown: Fc fragment of human IgG1, fused to the C-terminus through the pFUSE-hIgG1-Fc1 vector (InvivoGen)) AMDLILINSLPLVSDAETSLTCIASGWRPHEPITIGRDFEALMNQHQDPLEVTQDVTREWAKKVVWKREKASKINGAYFCEGRVRGEAIRIRTMKMRQQASFLPATLTMTVDKGDNVNISFKKVLIKEEDAVIYKNGSFIHSVPRHEVPDILEVHLPHAQPQDAGVYSARYIGGNLFTSAFTRLIVRRCEAQKWGPECNHLCTACMNNGVCHEDTGECICPPGFMGRTCEKACELHTFGRTCKERCSGQEGCKSYVFCLPDPYGCSCATGWKGLQCNEACHPGFYGPDCKLRCSCNNGEMCDRFQGCLCSPGWQGLQCEREGIEFMQSKVLLAVALWLCVETRAASDYRSPFIASVSDQHGVVYITENKNKTVVIPCLGSISNLNVSLCARYPEKRFVPDGNRISWDSKKGFTIPSYMISYAGMVFCEAKINDESYQSIMYIVVVVGEQPFINKPDTLLVNRKDAMWVPCLVSIPGLNVTLRSQSSVLWPDGQEVVWDDRRGMLVSTPLLHDALYLQCETTWGDQDFLSNPFLVHITG
3 | – | 100 nM | 100 nM | no binding | V-body (Fc fusion, Expressed in 293-F cells and purified on MabSelect SuRe; also called fusion polypeptide V-body; R2-2/R3-2-Fc; not shown: Fc fragment of human IgG1, fused to the C-terminus through the pFUSE-hIgG1-Fc1 vector (InvivoGen)) ASDYRSPFIASVSDQHGVVYITENKNKTVVIPCLGSISNLNVSLCARYPEKRFVPDGNRISWDSKKGFTIPSYMISYAGMVFCEAKINDESYQSIMYIVVVVGEQPFINKPDTLLVNRKDAMWVPCLVSIPGLNVTLRSQSSVLWPDGQEVVWDDRRGMLVSTPLLHDALYLQCETTWGDQDFLSNPFLVHITG
